Assay results: the Human Domainome abundance scans (Beltran et al. 2025)
± gives the uncertainty stated by the source.

B1: Pituitary-specific positive transcription factor 1, residues 130 to 198; numbered along this chain, P28069 (parent)
chain: RELEKFANEFKVRRIKLGYTQTNVGEALAAVHGSEFSQTTICRFENLQLSFKNACKLKAILSKWLEEAE
B2: Membrane-associated guanylate kinase, WW and PDZ domain-containing protein 2, residues 601 to 682; numbered along this chain, Q86UL8 (parent)
chain: AELMTLTIVKGAQGFGFTIADSPTGQRVKQILDIQGCPGLCEGDLIVEINQQNVQNLSHTEVVDILKDCPIGSETSLIIHRG

Variants of: B1
Assay: abundance fitness (aPCA) (normalised: wild type 0, dead -1); higher = more abundant; growth selection in yeast, the domain comes from the species named
Settings: Homo sapiens

| Variant | abundance fitness |
| --- | --- |
| K11C | -0.795 ± 0.2 |
| K11F | -1.02 ± 0.39 |
| L57W | -0.642 ± 0.18 |
| L57K | -0.497 ± 0.16 |
| L57P | -0.89 ± 0.3 |
| L57I | 0.013 ± 0.06 |
| G18W | -0.83 ± 0.23 |
| G18I | -0.665 ± 0.27 |
| R43G | -0.388 ± 0.14 |
| R43M | 0.234 ± 0.17 |
| A27T | -0.18 ± 0.089 |
| L47F | -0.562 ± 0.12 |
| L47H | 0.164 ± 0.11 |
| L47A | -0.204 ± 0.082 |
| L47G | 0.292 ± 0.063 |
| L47K | -0.064 ± 0.057 |

| Variant | abundance fitness |
| --- | --- |
| E67T | -0.371 ± 0.097 |
| E67S | -0.088 ± 0.056 |
| E67Y | -0.36 ± 0.09 |
| E67L | -0.594 ± 0.097 |
| E67C | -0.301 ± 0.073 |
| E67W | -0.203 ± 0.1 |
| K56G | -0.341 ± 0.054 |
| K56A | -0.226 ± 0.064 |
| K56T | -0.307 ± 0.067 |
| K56F | -0.554 ± 0.12 |
| K56D | -0.366 ± 0.1 |
| F44P | -0.936 ± 0.19 |
| F44Y | -0.842 ± 0.13 |
| L28C | -0.889 ± 0.23 |
| L28T | -0.226 ± 0.098 |
| L28P | -0.853 ± 0.4 |

Variants of: B2
Assay: as above
Settings: Homo sapiens

| Variant | abundance fitness |
| --- | --- |
| S76H | -0.668 ± 0.29 |
| S76L | -0.061 ± 0.077 |
| S76Y | 0.09 ± 0.21 |
| S76T | -0.053 ± 0.087 |
| S76P | -0.046 ± 0.072 |
| S76A | -0.018 ± 0.074 |
| S76D | -0.124 ± 0.098 |
| S76V | -0.031 ± 0.063 |
| S76M | -0.003 ± 0.11 |
| S76C | 0.016 ± 0.12 |
| S76W | -0.123 ± 0.076 |
| S76N | -0.003 ± 0.2 |
| S76R | -0.021 ± 0.054 |
| S76Q | 0 ± 0.1 |
| S76I | -0.118 ± 0.14 |
| S76E | -0.044 ± 0.14 |
| G82T | -0.023 ± 0.22 |
| G82F | -0.25 ± 0.17 |
| G82S | -0.09 ± 0.076 |
| G82L | -0.148 ± 0.17 |
| G82K | -0.16 ± 0.15 |
| G82V | -0.188 ± 0.16 |
| G82P | -0.058 ± 0.12 |

| Variant | abundance fitness |
| --- | --- |
| G82C | -0.117 ± 0.16 |
| G82A | -0.051 ± 0.11 |
| G82Q | 0.092 ± 0.37 |
| G82R | -0.016 ± 0.082 |
| G82H | -0.303 ± 0.27 |
| G82W | -0.184 ± 0.15 |
| G82D | 0.009 ± 0.11 |
| I78R | 0.033 ± 0.071 |
| I78H | -0.157 ± 0.2 |
| I78E | -0.086 ± 0.17 |
| I78K | -0.122 ± 0.1 |
| I78M | 0.144 ± 0.14 |
| I78S | 0.019 ± 0.098 |
| I78G | -0.075 ± 0.068 |
| I78L | -0.053 ± 0.097 |
| I78Q | -0.23 ± 0.14 |
| I78N | -0.011 ± 0.2 |
| I78W | -0.129 ± 0.089 |
| I78T | -0.224 ± 0.15 |
| I78A | -0.179 ± 0.12 |
| I78F | -0.035 ± 0.27 |
| I78P | -1.13 ± 0.49 |
| E74T | -0.422 ± 0.38 |

| Variant | abundance fitness |
| --- | --- |
| E74M | 0.062 ± 0.15 |
| E74G | -0.153 ± 0.1 |
| E74C | -0.322 ± 0.17 |
| E74W | -0.069 ± 0.096 |
| E74K | -0.23 ± 0.34 |
| E74H | 0.241 ± 0.47 |
| E74V | -0.122 ± 0.12 |
| E74S | -0.16 ± 0.1 |
| E74R | 0.013 ± 0.069 |
| E74A | -0.185 ± 0.088 |
| E74P | 0.149 ± 0.12 |
| E74D | 0.137 ± 0.15 |
| E74Q | -0.074 ± 0.16 |
| E74I | -0.214 ± 0.16 |
| H80R | 0.027 ± 0.063 |
| H80F | -0.128 ± 0.19 |
| H80E | 0.019 ± 0.11 |
| H80M | -0.23 ± 0.27 |
| H80A | -0.049 ± 0.077 |
| H80N | 0.124 ± 0.19 |
| H80G | -0.006 ± 0.076 |
| H80T | 0.028 ± 0.079 |
| H80W | -0.079 ± 0.16 |

| Variant | abundance fitness |
| --- | --- |
| H80P | -0.395 ± 0.14 |
| H80V | -0.231 ± 0.098 |
| H80S | 0.014 ± 0.075 |
| H80L | -0.135 ± 0.079 |
| H80C | -0.121 ± 0.11 |
| H80D | 0.043 ± 0.14 |
| S73Y | -0.178 ± 0.19 |
| S73W | -0.06 ± 0.091 |
| T75P | -0.164 ± 0.078 |
| T75C | -0.331 ± 0.2 |
| T75S | -0.331 ± 0.082 |
| T75M | 0.047 ± 0.11 |
| T75Q | -0.148 ± 0.14 |
| T75A | 0.101 ± 0.079 |
| T75R | -0.113 ± 0.075 |
| T75N | -0.115 ± 0.19 |
| T75V | 0.013 ± 0.091 |
| T75F | -0.02 ± 0.16 |
| T75I | -0.101 ± 0.4 |
| T75D | -0.09 ± 0.21 |
| T75E | -0.072 ± 0.11 |
| T75K | -0.133 ± 0.11 |
| T75G | -0.08 ± 0.063 |

| Variant | abundance fitness |
| --- | --- |
| T75L | -0.045 ± 0.072 |
| T75Y | -0.151 ± 0.12 |
| L77W | -0.072 ± 0.075 |
| L77M | 0.008 ± 0.12 |
| L77K | -0.892 ± 0.31 |
| L77A | -0.124 ± 0.07 |
| L77F | -0.05 ± 0.38 |
| L77I | 0.24 ± 0.29 |
| L77E | -1.12 ± 0.38 |
| L77T | -0.132 ± 0.12 |
| L77G | -1.02 ± 0.15 |
| L77P | -0.86 ± 0.24 |
| L77S | -0.583 ± 0.15 |
| L77R | -1.17 ± 0.28 |
| L77D | -1.28 ± 0.48 |
| L77V | -0.03 ± 0.062 |
| R81P | 0.039 ± 0.083 |
| R81A | -0.098 ± 0.079 |
| R81V | -0.252 ± 0.11 |
| R81K | -0.21 ± 0.17 |
| R81Q | -0.051 ± 0.16 |
| R81M | -0.387 ± 0.12 |
| R81I | -0.668 ± 0.25 |

| Variant | abundance fitness |
| --- | --- |
| R81H | 0.048 ± 0.23 |
| R81G | 0.017 ± 0.067 |
| R81E | -0.419 ± 0.1 |
| R81N | -0.144 ± 0.37 |
| R81T | -0.174 ± 0.12 |
| R81D | -0.538 ± 0.41 |
| R81W | -0.52 ± 0.12 |
| I79W | -0.467 ± 0.17 |
| I79A | -0.214 ± 0.14 |
| I79R | -0.24 ± 0.064 |
| I79S | -0.314 ± 0.11 |
| I79M | -0.005 ± 0.16 |
| I79C | -0.115 ± 0.12 |
| I79V | -0.102 ± 0.073 |
| I79F | -0.046 ± 0.17 |
| I79L | 0.036 ± 0.077 |
| I79Q | -0.73 ± 0.27 |
| I79K | -0.534 ± 0.16 |
| I79G | -0.42 ± 0.11 |
| I79T | -0.063 ± 0.12 |
